Reference: patent publication US20220306765A1 (SUZHOU TRANSCENTA THERAPEUTICS, published 2022)

Experiments:
human CLDN18.2-mRFP Q29M = human CLDN18.2-mRFP Q29M (human); assay: FACS, transfected HEK293, 10 µg/ml antibody;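 note: antibody binding read by flow cytometry with a FITC-labelled anti-human IgG secondary, gated on RFP-positive cells, each mutant signal expressed against wild-type CLDN18.2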
Method: (§1) The transfected HEK293-CLDN18.2 or HEK293-CLDN18.1 cell were resuspended in PBS with 2% BSA at density of 10\hat{ }5/well, 100 μl/well. […] Next, cells were washed 3 times by FACS washing buffer and incubated with 100 μl/well goat anti-hIgG (H+L)-FITC (1:200 dilution) at 4° C. for another 30 min. Finally, cells were washed 3 times by FACS washing buffer and analyzed by Flow Cytometry. To analyze binding to CLDN18.2 transfected cells, the RFP positive cells were used for control gating.

human CLDN18.2-mRFP G65P = human CLDN18.2-mRFP G65P (human); assay: FACS, transfected HEK293, 10 µg/ml antibody;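 note: antibody binding read by flow cytometry with a FITC-labelled anti-human IgG secondary, gated on RFP-positive cells, each mutant signal expressed against wild-type CLDN18.2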
Method: as §1

human CLDN18.2-mRFP Q47E = human CLDN18.2-mRFP Q47E (human); assay: FACS, transfected HEK293, 10 µg/ml antibody;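 note: antibody binding read by flow cytometry with a FITC-labelled anti-human IgG secondary, gated on RFP-positive cells, each mutant signal expressed against wild-type CLDN18.2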
Chain of human CLDN18.2-mRFP Q47E (human) (chain, as listed by the source Q47E Q47E limits assumed): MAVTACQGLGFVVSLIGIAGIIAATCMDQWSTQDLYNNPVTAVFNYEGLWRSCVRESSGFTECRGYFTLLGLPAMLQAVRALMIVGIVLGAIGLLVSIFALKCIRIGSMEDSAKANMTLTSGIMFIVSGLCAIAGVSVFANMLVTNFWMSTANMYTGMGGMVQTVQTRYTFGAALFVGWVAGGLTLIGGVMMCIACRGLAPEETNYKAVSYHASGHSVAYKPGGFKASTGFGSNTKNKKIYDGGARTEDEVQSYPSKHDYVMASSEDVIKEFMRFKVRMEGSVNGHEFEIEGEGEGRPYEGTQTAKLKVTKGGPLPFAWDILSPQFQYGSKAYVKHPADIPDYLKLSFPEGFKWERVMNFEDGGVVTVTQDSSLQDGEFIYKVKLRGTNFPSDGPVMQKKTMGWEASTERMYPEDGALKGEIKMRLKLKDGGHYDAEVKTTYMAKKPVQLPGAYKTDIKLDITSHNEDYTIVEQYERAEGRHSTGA
Method: as §1

human CLDN18.2-mRFP N45Q = human CLDN18.2-mRFP N45Q (human); assay: FACS, transfected HEK293, 10 µg/ml antibody;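 note: antibody binding read by flow cytometry with a FITC-labelled anti-human IgG secondary, gated on RFP-positive cells, each mutant signal expressed against wild-type CLDN18.2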
Method: as §1

human CLDN18.2-mRFP E56Q = human CLDN18.2-mRFP E56Q (human); assay: FACS, transfected HEK293, 10 µg/ml antibody
Method: as §1

human CLDN18.2-mRFP N37D = human CLDN18.2-mRFP N37D (human); assay: FACS, transfected HEK293, 10 µg/ml antibody
Chain of human CLDN18.2-mRFP N37D (human) (chain, as listed by the source N37D N37D limits assumed): as the sequence (chain, as listed by the source Q47E Q47E limits assumed) above, with N37D, E47Q counted along it
Method: as §1

human CLDN18.2-mRFP A42S = human CLDN18.2-mRFP A42S (human); assay: FACS, transfected HEK293, 10 µg/ml antibody
Method: as §1

[1] = target: T1, human CLDN18.2-mRFP1, wild-type (human); assay: FACS, transfected HEK293, 10 µg/ml antibody
T1 construct: human CLDN18.2 (amino acid 1-261) fused to mRFP1 (amino acid 1-225), transiently expressed in HEK293 cells; also called wild-type human CLDN18.2-mRFP
Method: as §1

human CLDN18.2-mRFP L69I = human CLDN18.2-mRFP L69I (human); assay: FACS, transfected HEK293, 10 µg/ml antibody
Chain of human CLDN18.2-mRFP L69I (human) (chain, as listed by the source L69I L69I limits assumed): as the sequence (chain, as listed by the source Q47E Q47E limits assumed) above, with E47Q, L69I counted along it
Method: as §1

human CLDN18.1 = target: T2, human CLDN18.1 (human, UniProt P56856 1-261); assay: FACS, HEK293-CLDN18.1 cells
T2 construct: on HEK293-CLDN18.1 cells; also called Claudin-18 splice variant 1; NP_057453.1
T2 sequence (P56856 whole entry, canonical isoform): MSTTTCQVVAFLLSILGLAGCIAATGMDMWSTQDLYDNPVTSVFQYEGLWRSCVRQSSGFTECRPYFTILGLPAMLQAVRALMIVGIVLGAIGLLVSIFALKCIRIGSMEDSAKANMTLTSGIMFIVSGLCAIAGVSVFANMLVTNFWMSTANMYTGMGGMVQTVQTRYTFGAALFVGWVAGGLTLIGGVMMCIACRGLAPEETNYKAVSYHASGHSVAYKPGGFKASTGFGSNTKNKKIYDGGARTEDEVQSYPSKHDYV

human CLDN18.2 [2] = target: T3, human CLDN18.2 (human); assay: FACS, NUGC4 cells
T3 construct: also called hCLDN18.2; Claudin-18 splice variant 2

human CLDN18.2-mRFP S58A = human CLDN18.2-mRFP S58A (human); assay: FACS, transfected HEK293, 10 µg/ml antibody;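 note: antibody binding detected by flow cytometry with FITC-labelled anti-human IgG secondary, gated on RFP-positive cells, mutant signal relative to wild-type CLDN18.2-mRFP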
Method: as §1
(§2) Subsequently, these plasmids of mutants and wild-type CLDN18.2-mRFP were transfected into HEK293 cell.

human CLDN18.2-mRFP N37A = human CLDN18.2-mRFP N37A (human); assay: FACS, transfected HEK293, 10 µg/ml antibody;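 note: antibody binding detected by flow cytometry with FITC-labelled anti-human IgG secondary, gated on RFP-positive cells, mutant signal relative to wild-type CLDN18.2-mRFP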
Method: as §1, §2

human CLDN18.2-mRFP S52A = human CLDN18.2-mRFP S52A (human); assay: FACS, transfected HEK293, 10 µg/ml antibody;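 note: antibody binding detected by flow cytometry with FITC-labelled anti-human IgG secondary, gated on RFP-positive cells, mutant signal relative to wild-type CLDN18.2-mRFP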
Method: as §1, §2

human CLDN18.2-mRFP N45A = human CLDN18.2-mRFP N45A (human); assay: FACS, transfected HEK293, 10 µg/ml antibody;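 note: antibody binding detected by flow cytometry with FITC-labelled anti-human IgG secondary, gated on RFP-positive cells, mutant signal relative to wild-type CLDN18.2-mRFP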
Method: as §1, §2

human CLDN18.2-mRFP W30A = human CLDN18.2-mRFP W30A (human); assay: FACS, transfected HEK293, 10 µg/ml antibody
Method: as §1, §2

human CLDN18.2-mRFP Y66A = human CLDN18.2-mRFP Y66A (human); assay: FACS, transfected HEK293, 10 µg/ml antibody
Method: as §1, §2

human CLDN18.2-mRFP V40A = human CLDN18.2-mRFP V40A (human); assay: FACS, transfected HEK293, 10 µg/ml antibody
Method: as §1, §2

human CLDN18.2-mRFP F44A = human CLDN18.2-mRFP F44A (human); assay: FACS, transfected HEK293, 10 µg/ml antibody
Chain of human CLDN18.2-mRFP F44A (human) (chain, as listed by the source F44A F44A limits assumed): as the sequence (chain, as listed by the source Q47E Q47E limits assumed) above, with F44A, E47Q counted along it
Method: as §1, §2

human CLDN18.2-mRFP D34A = human CLDN18.2-mRFP D34A (human); assay: FACS, transfected HEK293, 10 µg/ml antibody
Method: as §1, §2

human CLDN18.2-mRFP T32A = human CLDN18.2-mRFP T32A (human); assay: FACS, transfected HEK293, 10 µg/ml antibody
Method: as §1, §2

human CLDN18.2-mRFP L49A = human CLDN18.2-mRFP L49A (human); assay: FACS, transfected HEK293, 10 µg/ml antibody
Chain of human CLDN18.2-mRFP L49A (human) (chain, as listed by the source L49A L49A limits assumed): as the sequence (chain, as listed by the source Q47E Q47E limits assumed) above, with E47Q, L49A counted along it
Method: as §1, §2

human CLDN18.2-mRFP Y36A = human CLDN18.2-mRFP Y36A (human); assay: FACS, transfected HEK293, 10 µg/ml antibody
Method: as §1, §2

human CLDN18.2-mRFP T68A = human CLDN18.2-mRFP T68A (human); assay: FACS, transfected HEK293, 10 µg/ml antibody
Method: as §1, §2

human CLDN18.2-mRFP Q29A = human CLDN18.2-mRFP Q29A (human); assay: FACS, transfected HEK293, 10 µg/ml antibody
Method: as §1, §2

human CLDN18.2-mRFP Q47A = human CLDN18.2-mRFP Q47A (human); assay: FACS, transfected HEK293, 10 µg/ml antibody
Method: as §1, §2

human CLDN18.2-mRFP L76A = human CLDN18.2-mRFP L76A (human); assay: FACS, transfected HEK293, 10 µg/ml antibody
Method: as §1, §2

human CLDN18.2-mRFP Y46A = human CLDN18.2-mRFP Y46A (human); assay: FACS, transfected HEK293, 10 µg/ml antibody
Chain of human CLDN18.2-mRFP Y46A (human) (chain, as listed by the source Y46A Y46A limits assumed): as the sequence (chain, as listed by the source Q47E Q47E limits assumed) above, with Y46A, E47Q counted along it
Method: as §1, §2

human CLDN18.2-mRFP L72A = human CLDN18.2-mRFP L72A (human); assay: FACS, transfected HEK293, 10 µg/ml antibody
Chain of human CLDN18.2-mRFP L72A (human) (chain, as listed by the source L72A L72A limits assumed): as the sequence (chain, as listed by the source Q47E Q47E limits assumed) above, with E47Q, L72A counted along it
Method: as §1, §2

human CLDN18.2-mRFP R64A = human CLDN18.2-mRFP R64A (human); assay: FACS, transfected HEK293, 10 µg/ml antibody
Chain of human CLDN18.2-mRFP R64A (human) (chain, as listed by the source R64A R64A limits assumed): as the sequence (chain, as listed by the source Q47E Q47E limits assumed) above, with E47Q, R64A counted along it
Method: as §1, §2

human CLDN18.2-mRFP V79A = human CLDN18.2-mRFP V79A (human); assay: FACS, transfected HEK293, 10 µg/ml antibody
Method: as §1, §2

human CLDN18.2-mRFP S57A = human CLDN18.2-mRFP S57A (human); assay: FACS, transfected HEK293, 10 µg/ml antibody
Chain of human CLDN18.2-mRFP S57A (human) (chain, as listed by the source S57A S57A limits assumed): as the sequence (chain, as listed by the source Q47E Q47E limits assumed) above, with E47Q, S57A counted along it
Method: as §1, §2

human CLDN18.2-mRFP R80A = human CLDN18.2-mRFP R80A (human); assay: FACS, transfected HEK293, 10 µg/ml antibody
Method: as §1, §2

human CLDN18.2-mRFP Q33A = human CLDN18.2-mRFP Q33A (human); assay: FACS, transfected HEK293, 10 µg/ml antibody
Method: as §1, §2

human CLDN18.2-mRFP E56A = human CLDN18.2-mRFP E56A (human); assay: FACS, transfected HEK293, 10 µg/ml antibody
Method: as §1, §2

human CLDN18.2 [3] = target: T3, human CLDN18.2; assay: FACS, HEK293-CLDN18.2 cells

binding percentage vs wild-type CLDN18.2 (human CLDN18.2-mRFP Q29M): 90.4% | binding percentage vs wild-type CLDN18.2 (human CLDN18.2-mRFP G65P): 85.5% | binding percentage vs wild-type CLDN18.2 (human CLDN18.2-mRFP Q47E): 87.5% | binding percentage vs wild-type CLDN18.2 (human CLDN18.2-mRFP N45Q): 65% | binding percentage vs wild-type CLDN18.2 (human CLDN18.2-mRFP E56Q): 52.7% | binding percentage vs wild-type CLDN18.2 (human CLDN18.2-mRFP N37D): 92.7% | binding percentage vs wild-type CLDN18.2 (human CLDN18.2-mRFP A42S): 90% | binding percentage vs wild-type CLDN18.2 [1]: 100% | binding percentage vs wild-type CLDN18.2 (human CLDN18.2-mRFP L69I): 106% | binding result (human CLDN18.1): no binding | EC50 (human CLDN18.2 [2]): 19.1 µg/mL | binding percentage vs wild-type CLDN18.2 (human CLDN18.2-mRFP S58A): 39.4% | binding percentage vs wild-type CLDN18.2 (human CLDN18.2-mRFP N37A): 60.7% | binding percentage vs wild-type CLDN18.2 (human CLDN18.2-mRFP S52A): 99% | binding percentage vs wild-type CLDN18.2 (human CLDN18.2-mRFP N45A): 35.2% | binding percentage vs wild-type CLDN18.2 (human CLDN18.2-mRFP W30A): 3.2% | binding percentage vs wild-type CLDN18.2 (human CLDN18.2-mRFP Y66A): 52.5% | binding percentage vs wild-type CLDN18.2 (human CLDN18.2-mRFP V40A): 128% | binding percentage vs wild-type CLDN18.2 (human CLDN18.2-mRFP F44A): 70% | binding percentage vs wild-type CLDN18.2 (human CLDN18.2-mRFP D34A): 96.3% | binding percentage vs wild-type CLDN18.2 (human CLDN18.2-mRFP T32A): 85.6% | binding percentage vs wild-type CLDN18.2 (human CLDN18.2-mRFP L49A): 2.32% | binding percentage vs wild-type CLDN18.2 (human CLDN18.2-mRFP Y36A): 78% | binding percentage vs wild-type CLDN18.2 (human CLDN18.2-mRFP T68A): 71.3% | binding percentage vs wild-type CLDN18.2 (human CLDN18.2-mRFP Q29A): 54.8% | binding percentage vs wild-type CLDN18.2 (human CLDN18.2-mRFP Q47A): 57.5% | binding percentage vs wild-type CLDN18.2 (human CLDN18.2-mRFP L76A): 52.1% | binding percentage vs wild-type CLDN18.2 (human CLDN18.2-mRFP Y46A): 15% | binding percentage vs wild-type CLDN18.2 (human CLDN18.2-mRFP L72A): 53% | binding percentage vs wild-type CLDN18.2 (human CLDN18.2-mRFP R64A): 51% | binding percentage vs wild-type CLDN18.2 (human CLDN18.2-mRFP V79A): 39.1% | binding percentage vs wild-type CLDN18.2 (human CLDN18.2-mRFP S57A): 77.2% | binding percentage vs wild-type CLDN18.2 (human CLDN18.2-mRFP R80A): 13.6% | binding percentage vs wild-type CLDN18.2 (human CLDN18.2-mRFP Q33A): 59.8% | binding percentage vs wild-type CLDN18.2 (human CLDN18.2-mRFP E56A): 21.9% | EC50 (human CLDN18.2 [3]): 1.35 µg/mL
B1: 59A9-C (antibody, human IgG1, V domains shown)
VH: QITQKESGPGILQPSQTLSLTCSLSGFSLSTYFIGVGWIRQPSGKGLEWLAHIWWNDNKYYNTALKSRLTISKDTSNNQVFLKIASVDTADTATYYCARMGSGAWFTYWGQGTLVTVSA
VL: DIVMTQSPSSLTVTAGEKVTMSCKSSQSLLNSGNQKNYLTWYQQKPGQPPKLLIYWASTRESGVPDRFTGSGSGTDFTLTISSVQAEDLAVYYCQNDYYYPLTFGSGTKLEIK
notes: also called chimeric 59A9
